Results reported in US20190195891A1, “DIAGNOSTIC AND THERAPEUTIC USES OF EXOSOMES” (Yeda Research and Development Co. Ltd., priority 2016, published 2019).
Changes are numbered by the printed parent chain. Names and notes keep the numbering of the source. “Also recorded” adds a separate entry of the source.

Experiments:
HepG2 cells [1] = experiment: Fate of EGFR after EGF binding in control and MLKL knocked-down HepG2 cells (immunocytochemistry); type: cell-based, human; settings: 2 hours after ligand binding; for cellular levels of the EGFR: HepG2 cells after EGF application; for difference in EGFR between cells expressing MLKL and cells deficient of it: control vs MLKL knocked-down HepG2 cells
Protocol: (§1) Bafilomycin A1 from Santa Cruz Biotechnology was applied to the cells at 100 nM. Chloroquine was applied at 25 μM, 4-hydroxytamoxifen was applied at 1 μM, and ionomycin was applied at 1 μM, ultra pure LPS, applied at 1 μg/ml (all from Sigma). Human ECF from Biological industries, mouse EGF from ProSpec and human TNF from Ybdy were biotinylated using an EZ-Link biotinylation kit (Thermo Fisher Scientific) and then applied to the cells at 5 μg/ml or injected intravenously into mice at a dose of 10 μg/mouse. Bovine serum albumin (BSA), tagged with gold particles (BSA-gold, CMC Utrecht), was applied to the cells at an optical density of 2. To trigger necroptosis, TNF (1000 units/ml) was applied together with the bivalentIAP (inhibitor of apoptosis protein) antagonist BV6 and the caspase inhibitor z-VAD-fmk, both from WuXu App Tec, at concentrations of 1 μM and 20 μM respectively. IL-1β ELISA kit was from eBiosicne.
Prior to ligand treatment the cells were incubated for 12 hours in serum-free medium. Biotinylated EGF and TNF were applied to the cells for 30 minutes on ice in CO2-independent medium (Thermo Fisher Scientific), and this was followed by rinsing and rther incubation without those ligands at 37° C. For western blot analysis, cellular proteins were extracted at the indicated times in RIPA buffer (20 mM Tris-HCl pH 7.5, 150 mM NaCl, 1 mM EDTA, 1 mM EGTA, 1% NP-40, 0.5% sodium deoxycholate, 0.1% sodium dodecyl sulfate (SDS), protease and phosphatase inhibitors). For immunofluorescence microscopy, cells were fixed in 4% paraformaldehyde (PFA) in PBS and then stained with fluorescence-conjugated antibodies.
Immunostaining was performed as described previously [Yoon S. et al., Cell death and differentiation (2016) 23, 253-260]. Briefly, cells fixed with 4% PFA in PBS were permeabilized by incubation in methanol at −20° C. for 10 minutes, followed by incubation in blocking buffer (20% normal goat serum (NGS), 2% BSA, 0.3 M glycine and 0.1% Tween-20 in PBS, pH 7.2). Following incubation with the indicated antibodies, images were obtained using an Olympus IX 81 confocal microscope (Olympus Imaging), with a UPLSAPO 60×1.35 NA oil objective and FluoView FV1000 software (Olympus Imaging). Images were processed using Imaris software from Bitplane.

MEFs = experiment: Exosome generation by MEFs, ionomycin treatment; type: cell-based, mouse
Protocol: as §1, with “To trigger necroptosis, TNF (1000 units/ml) was applied together with the bivalentIAP (inhibitor of apoptosis protein) antagonist BV6 and the caspase inhibitor z-VAD-fmk, both from WuXu App Tec, at concentrations of 1 μM and 20 μM respectively. IL-1β ELISA kit was from eBiosicne.” left out
(§2) In all experiments aimed at assessing the generation of exosomes by cultured cells, the FBS supplementing the growth medium was pre-depleted of bovine exosomes by centrifugation at […] for 18 hours. […] The stimuli whose effect on exosome generation was to be assessed were applied for the indicated times towards the end of this 12 hour period. […] Size spectra and amounts of the particles in the exosome preparations were determined by Nanoparticle Tracking Analysis using the NanoSight NS300 device (Malvern Instruments) according to the manufacturer's instructions.

HepG2 cells [2] = experiment: Exosome generation by HepG2 cells, ionomycin treatment; type: cell-based, human
Protocol: as §1, with “To trigger necroptosis, TNF (1000 units/ml) was applied together with the bivalentIAP (inhibitor of apoptosis protein) antagonist BV6 and the caspase inhibitor z-VAD-fmk, both from WuXu App Tec, at concentrations of 1 μM and 20 μM respectively. IL-1β ELISA kit was from eBiosicne.” left out
as §2

HT29 cells = experiment: Exosome generation by HT29 cells after triggering necroptosis (Nanoparticle Tracking Analysis, western blot); type: cell-based, human; settings: HT-29 cells treated with TBZ
Protocol: as §1, with “To trigger necroptosis, TNF (1000 units/ml) was applied together with the bivalentIAP (inhibitor of apoptosis protein) antagonist BV6 and the caspase inhibitor z-VAD-fmk, both from WuXu App Tec, at concentrations of 1 μM and 20 μM respectively. IL-1β ELISA kit was from eBiosicne.” left out
as §2
Cells and liver samples were extracted in RIPA and in 1% SDS, respectively. […] Band intensity was quantified using the ImageJ software.

[3] = system: MLKL knocked-down HT-29 cells; experiment: Cell death in MLKL knocked-down HT-29 cells inducibly expressing MLKL mutants; type: cell-based, human; settings: induced expression of the mutant
Description: (§3) The various mutants of MLKL were expressed inducibly in HT-29 cells in which the endogenous MLKL mRNA was constitutively knocked down. Expression was achieved by lentiviral infection with the GEV16/pF5x UAS system as described previously [Dunning C J et al. The EMBO Journal (2007) 26, 3227-3237, doi:10.1038/sj.emboj.7601748].
Cell death was quantified using the Cytotoxicity Detection Kit (Roche Applied Science) to determine the concentration of lactic dehydrogenase (LDH) in the mouse cell media or plasma.

[4] = system: MLKL knocked-down HT-29 cells; experiment: Yield of exosomes in MLKL knocked-down HT-29 cells inducibly expressing MLKL mutants; type: cell-based, human; settings: inducible expression, compared to wild-type MLKL
Description: as §3
In all experiments aimed at assessing the generation of exosomes by cultured cells, the FBS supplementing the growth medium was pre-depleted of bovine exosomes by centrifugation at […] for 18 hours. Except where otherwise indicated, the exosomes were collected after 12 hours of incubation. The stimuli whose effect on exosome generation was to be assessed were applied for the indicated times towards the end of this 12 hour period. Unless otherwise indicated, TBZ was applied for 4 hours. For recovery of exosomes from the mice, mouse blood samples were collected in MiniCollect®TUBEs (Greiner Bio-One) and centrifuged at 3000 rpm for 15 minutes. Mouse plasma and cell-growth media were passed through 0.2 μm filters and centrifuged at […] for 90 minutes, after which the pellet was suspended in phosphate-buffered saline (PBS) and re-sedimented by centrifugation as above. Size spectra and amounts of the particles in the exosome preparations were determined by Nanoparticle Tracking Analysis using the NanoSight NS300 device (Malvern Instruments) according to the manufacturer's instructions.

HepG2 cells [5] = experiment: Cell death of HepG2 cells inducibly expressing MLKL mutants; type: cell-based, human; settings: inducible expression in HepG2 cells
[6] = system: MLKL knocked-down HepG2 cells; experiment: Levels of EGF and EGFR in MLKL knocked-down HepG2 cells inducibly expressing MLKL mutants (western blot); type: cell-based, human; settings: EGF applied 7 hours after induction
[7] = system: MLKL knocked-down HT-29 cells; settings: cited from earlier work; for death in HT29 cells on inducible expression: Yoon et al. (2016); for induction of necroptosis/death by TBZ: as previously reported (Sun et al. 2012; Quarato et al. 2016)

CO/C1=C\C(C)=C\[C@@H](C)[C@@H](O)[C@@H](C)C/C(C)=C/C=C/[C@H](OC)[C@@H]([C@@H](C)[C@@H](O)[C@H](C)[C@@]2(O)C[C@@H](O)[C@H](C)[C@@H](C(C)C)O2)OC1=O [bafilomycin A1]
cellular levels of the EGFR (HepG2 cells [1]): withhold the decrease
difference in EGFR between cells expressing MLKL and cells deficient of it (HepG2 cells [1]): obliterate the difference
difference in EGFR between cells expressing MLKL and cells deficient of it (HepG2 cells [1]; listed as Baf A1): equal accumulation of EGFR

CCN(CC)CCCC(C)Nc1ccnc2cc(Cl)ccc12 (stereo not shown) [chloroquine]
cellular levels of the EGFR (HepG2 cells [1]): withhold the decrease
difference in EGFR between cells expressing MLKL and cells deficient of it (HepG2 cells [1]): obliterate the difference
difference in EGFR between cells expressing MLKL and cells deficient of it (HepG2 cells [1]; listed as CQ): equal accumulation of EGFR

C[C@H](CCC(=O)O)C[C@H](C)C[C@H](C)C(=O)/C=C(\O)[C@H](C)C[C@H](C)C/C=C/[C@@H](C)[C@@H](O)[C@@H](C)[C@@H](O)C[C@@H]1CC[C@@](C)([C@H]2CC[C@@](C)([C@@H](C)O)O2)O1 [ionomycin]
generation of exosomes (MEFs; MEFs): enhanced generation of exosomes
generation of exosomes (MEFs; MEFs deficient of MLKL): no such enhancement
generation of exosomes (HepG2 cells [2]; HepG2 cells): enhanced generation of exosomes
generation of exosomes (HepG2 cells [2]; HepG2 cells deficient of MLKL): no such enhancement

CN1C(=O)C(Cc2c[nH]c3ccccc23)NC1=S (stereo not shown) [necrostatin-1]
effect on enhancement of exosome generation by TBZ (HT29 cells): block this enhancement; also recorded: reversal

B1: MLKL deletion mutant corresponding to its 180 N-terminal amino acid coiled-coil region: MLKL deletion mutant, 180 N-terminal amino acids (protein, UniProt Q8NB16 1-180, looked up, fragment)
chain: MENLKHIITLGQVIHKRCEEMKYCKKQCRRLGHRVLGLIKPLEMLQDQGKRSVPSEKLTTAMNRFKAALEEANGEIEKFSNRSNICRFLTASQDKILFKDVNRKLSDVWKELSLLLQVEQRMPVSPISQGASWAQEDQQDADEDRRAFQMLRRDNEKIEASLRRLEINMKEIKETLRQYL
cell death [3]: triggers necrotic death of the cells
generation of exosomes [4]: significantly lower

B2: T357E/S358D: MLKL with phospho-mimetic mutations of the residues that are the targets of phosphorylation by RIPK3 (protein, UniProt Q8NB16 1-471, looked up, variant T357E S358D)
Mixed lineage kinase …: MENLKHIITLGQVIHKRCEEMKYCKKQCRRLGHRVLGLIKPLEMLQDQGKRSVPSEKLTTAMNRFKAALEEANGEIEKFSNRSNICRFLTASQDKILFKDVNRKLSDVWKELSLLLQVEQRMPVSPISQGASWAQEDQQDADEDRRAFQMLRRDNEKIEASLRRLEINMKEIKETLRQYLPPKCMQEIPQEQIKEIKKEQLSGSPWILLRENEVSTLYKGEYHRAPVAIKVFKKLQAGSIAIVRQTFNKEIKTMKKFESPNILRIFGICIDETVTPPQFSIVMEYCELGTLRELLDREKDLTLGKRMVLVLGAARGLYRLHHSEAPELHGKIRSSNFLVTQGYQVKLAGFELRKTQEDMSLGTTREKTDRVKSTAYLSPQELEDVFYQYDVKSEIYSFGIVLWEIATGDIPFQGCNSEKIRKLVAVKRQQEPLGEDCPSELREIIDECRAHDPSVRPSVDEILKKLSTFSK
death of HepG2 cells within the time of the test (HepG2 cells [5]): no death
generation of exosomes [4]: levels higher than in cells expressing the wild type protein
intracellular degradation of EGF and EGFR following uptake [6]: facilitated
death in HT29 cells on inducible expression [7]: triggers death

B3: T357A/S358A: MLKL with the RIPK3 targeted residues replaced with alanine (protein, UniProt Q8NB16 1-471, looked up, variant T357A S358A)
Mixed lineage kinase …: B2 Mixed lineage kinase … with E357A, D358A
generation of exosomes [4]: compromised
induction of necroptosis/death by TBZ [7]: compromised

B4: 5A: MLKL in which Lys5, Lys16 Arg17, and Lys50 Arg51 were replaced with alanine (protein, UniProt Q8NB16 1-471, looked up, variant K5A K16A R17A K50A R51A)
Mixed lineage kinase …: B2 Mixed lineage kinase … with K5A, K16A, R17A, K50A, R51A, E357T, D358S
generation of exosomes [4]: failed to generate exosomes
induction of necroptosis/death by TBZ [7]: arrest death induction

B5: K230M/Q356A: MLKL with mutations within the ATP-binding pocket imposing the conformational change attained after phosphorylation (protein, UniProt Q8NB16 1-471, looked up, variant K230M Q356A)
Mixed lineage kinase …: B2 Mixed lineage kinase … with K230M, Q356A, E357T, D358S
death of HepG2 cells within the time of the test (HepG2 cells [5]): about 1%
generation of exosomes [4]: levels higher than in cells expressing the wild type protein
intracellular degradation of EGF and EGFR following uptake [6]: facilitated
death in HT29 cells on inducible expression [7]: triggers death
